Measured values taken from US20240150440A1 (LUMEN BIOSCIENCE, published 2024).
Like-named read-outs stand apart in the source and are kept apart here.

Tests used:
[1] = target: T1, recombinant SARS-CoV-2 RBD with C-terminal AviTag (SARS-CoV-2, UniProt P0DTC2 319-541)
[2] = target: T1, recombinant SARS-CoV-2 RBD with …; remark: listed apart in the source
[3] = target: T1, recombinant SARS-CoV-2 RBD with …; experiment: ELISA, competition with coated ACE2-Fc for RBD [Cont. 1]
[4] = target: SARS-COV-2 Wuhan Reference RBD (SARS-CoV-2, UniProt P0DTC2 319-541); experiment: ELISA, RBD coated
[5] = target: T1, recombinant SARS-CoV-2 RBD with …; remark: listed apart in the source
[6] = target: T1, recombinant SARS-CoV-2 RBD with …; experiment: BLI, biotinylated RBD on streptavidin biosensors [Cont. 6]
[7] = target: T1, recombinant SARS-CoV-2 RBD with …; experiment: ELISA, competition with coated ACE2-Fc for RBD [Cont. 6]

B1: MBP-5HVZ-R5C-F5-H6 (VHH, not shown: large carriers; small tags and cut ends)
VHH: QVQLVESGGGLVQPGGSLRLSCAASGSYFKINSLAWFRQAPGKAREVVAAIHSGDGTNYADSVKGRFTISRDNAKNTVYLQMNSLKPEDTAVYYCAADQAWVRAGTYDYWGQGTQVTVSS
IC50 [1]: 3.9 nM
Kd [1]: 3.13 nM

B2: PP1895 S3B-C8_smAKAP-C16S_S3B-C8_H6 (VHH)
chain: QVQLVESGGGLVQPGGSLRLSCAASGSIENIERMHWYRQAPGKQRELVAVIDSGGTTRYADSVKGRFTISRDNAKNTVYLQMNSLKPEDTAVYYCAAVWLTNAESTQEYWGQGTQVTVSSTVILEYAHRLSQDILSDALQQWASQVQLVESGGGLVQPGGSLRLSCAASGSIENIERMHWYRQAPGKQRELVAVIDSGGTTRYADSVKGRFTISRDNAKNTVYLQMNSLKPEDTAVYYCAAVWLTNAESTQEYWGQGTQVTVSSHHHHHH
Kd [2]: 2.06 nM
koff [2]: 0.00761 s⁻¹
kon [2]: 3.69e+06 M⁻¹ s⁻¹

B3: PP1146 MBP-5HVZ-PAPA-R2d-D3-H6 (VHH)
VHH: QVQLVESGGGLVQPGGSLRLSCAASGHIFSINNAAWVRQAPGKSREGVATIHSGGGTYYSDSVKGRFTISRDNAKNTVYLQMNSLKPEDTAVYYCNAEVSTGAGSRGRVSDVYWGQGTQVTVSS
notes: Form: Dimer
IC50 [3]: 2.1 nM

B4: PP1158 MPB-scTRP-PAPA-R2d-D3-H6 (VHH)
VHH: QVQLVESGGGLVQPGGSLRLSCAASGHIFSINNAAWVRQAPGKSREGVATIHSGGGTYYSDSVKGRFTISRDNAKNTVYLQMNSLKPEDTAVYYCNAEVSTGAGSRGRVSDVYWGQGTQVTVSS
notes: Form: Trimer
IC50 [3]: 43.4 nM

B5: PP1134 MBP-4B0F-PAPA-R2d-D3-H6 (VHH)
VHH: QVQLVESGGGLVQPGGSLRLSCAASGHIFSINNAAWVRQAPGKSREGVATIHSGGGTYYSDSVKGRFTISRDNAKNTVYLQMNSLKPEDTAVYYCNAEVSTGAGSRGRVSDVYWGQGTQVTVSS
notes: Form: Heptamer
IC50 [3]: 27.7 nM

B6: PP1181 R2d-D3-PP7-H6 (VHH)
VHH: QVQLVESGGGLVQPGGSLRLSCAASGHIFSINNAAWVRQAPGKSREGVATIHSGGGTYYSDSVKGRFTISRDNAKNTVYLQMNSLKPEDTAVYYCNAEVSTGAGSRGRVSDVYWGQGTQVTVSS
IC50 [3]: 282 nM

B7: MBP-5HVZ-R5C-G6-H6 (VHH, not shown: large carriers; small tags and cut ends)
VHH: QVQLVESGGGLVQPGGSLRLSCAASGSIESINAIHWFRQAPGKAREEVAAITENDVDYYADSVKGRFTISRDNAKNTVYLQMNSLKPEDTAVYYCASLSSGYQYVGFRYWGQGTQVTVSS
IC50 [1]: 8.7 nM

B8: PP1144 MBP-5HVZ-PAPA-R2c-F6-H6 (VHH)
VHH: QVQLVESGGGLVQPGGSLRLSCAASGRILAANIVHWYRQAPGKEREGVAGITTGGSNYYSDSVKGRFTISRDNAKNTVYLQMNSLKPEDTAVYYCNALGLGSASGSYESWGQGTQVTVSS
notes: Form: Dimer
IC50 [3]: 3.2 nM

B9: PP1132 MBP-4B0F-PAPA-R2c-F6-H6 (VHH)
VHH: QVQLVESGGGLVQPGGSLRLSCAASGRILAANIVHWYRQAPGKEREGVAGITTGGSNYYSDSVKGRFTISRDNAKNTVYLQMNSLKPEDTAVYYCNALGLGSASGSYESWGQGTQVTVSS
notes: Form: Heptamer
IC50 [3]: 158 nM

B10: PP1156 MPB-scTRP-PAPA-R2c-F6-H6 (VHH)
VHH: QVQLVESGGGLVQPGGSLRLSCAASGRILAANIVHWYRQAPGKEREGVAGITTGGSNYYSDSVKGRFTISRDNAKNTVYLQMNSLKPEDTAVYYCNALGLGSASGSYESWGQGTQVTVSS
notes: Form: Trimer
IC50 [3]: 165 nM

B11: MBP-5HVZ-R5C-F3-H6 (VHH, not shown: large carriers; small tags and cut ends)
VHH: QVQLVESGGGLVQPGGSLRLSCAASGTIPSINYTAWYRQAPGKQRELVASLTSGDNRYYTDSVKGRFTISRDNAKNTVYLQMNSLKPEDTAVYYCNAKTVGSSYRDSYNYWGQGTQVTVSS
IC50 [1]: 11.9 nM
Kd [1]: 11.3 nM

B12: PP1892 R2B-D5_smAKAP-C16S_S3B-C8_H6 (VHH)
chain: QVQLVESGGGLVQPGGSLRLSCAASGYADEINMVHWYRQAPGKGREFVAAIASGGSTFYADSVKGRFTISRDNAKNTVYLQMNSLKPEDTAVYYCAAIPRPSLSYAHDYAYWGQGTQVTVSSTVILEYAHRLSQDILSDALQQWASQVQLVESGGGLVQPGGSLRLSCAASGSIENIERMHWYRQAPGKQRELVAVIDSGGTTRYADSVKGRFTISRDNAKNTVYLQMNSLKPEDTAVYYCAAVWLTNAESTQEYWGQGTQVTVSSHHHHHH
Kd [2]: 0.33 nM
koff [2]: 0.000411 s⁻¹
kon [2]: 1.23e+06 M⁻¹ s⁻¹

B13: PP1145 MBP-5HVZ-PAPA-R2d-A6-H6 (VHH)
VHH: QVQLVESGGGLVQPGGSLRLSCAASGSGASIGAMHWFRQAPGKGREWVASITSAGNTYYGDSVKGRFTISRDNAKNTVYLQMNSLKPEDTAVYYCNALAGANYESQWEEYNYWGQGTQVTVSS
notes: Form: Dimer
IC50 [3]: 3.8 nM
EC50 [4]: 1.33 nM

B14: PP1157 MPB-scTRP-PAPA-R2d-A6-H6 (VHH)
VHH: QVQLVESGGGLVQPGGSLRLSCAASGSGASIGAMHWFRQAPGKGREWVASITSAGNTYYGDSVKGRFTISRDNAKNTVYLQMNSLKPEDTAVYYCNALAGANYESQWEEYNYWGQGTQVTVSS
notes: Form: Trimer
IC50 [3]: 4.7 nM

B15: PP1133 MBP-4B0F-PAPA-R2d-A6-H6 (VHH)
VHH: QVQLVESGGGLVQPGGSLRLSCAASGSGASIGAMHWFRQAPGKGREWVASITSAGNTYYGDSVKGRFTISRDNAKNTVYLQMNSLKPEDTAVYYCNALAGANYESQWEEYNYWGQGTQVTVSS
notes: Form: Heptamer
IC50 [3]: 11 nM

B16: MBP-5HVZ-R5D-F3-H6 (VHH, not shown: large carriers; small tags and cut ends)
VHH: QVQLVESGGGLVQPGGSLRLSCAASGSQLSINYVHWFRQAPGKQREFVAAITITGSSYYADSVKGRFTISRDNAKNTVYLQMNSLKPEDTAVYYCNTVDRTDNYGYDYWGQGTQVTVSS
IC50 [5]: 29.3 nM

B17: PP904 MBP-5HVZ-R5b-C5-H6 (VHH)
VHH: QVQLVESGGGLVQPGGSLRLSCAASGSPFKTQTVHWFRQAPGKGREWVASITSGSGTQYMDSVKGRFTISRDNAKNTVYLQMNSLKPEDTAVYYCAAANDGYGVDWGQGTQVTVSS
notes: Form: Dimer
Kd [6]: 11.8 nM
EC50 [4]: 1.06 nM
IC50 [7]: 2.5 nM

B18: PP900 MBP-5HVZ-R5a-F2-H6 (VHH)
VHH: QVQLVESGGGLVQPGGSLRLSCAASGSISSIEAMSWFRQAPGKQREGVATMASGGDTSYADSVKGRFTISRDNAKNTVYLQMNSLKPEDTAVYYCAAQTYRPDTWGRYTFWGQGTQVTVSS
notes: Form: Dimer
Kd [6]: 9.13 nM
EC50 [4]: 0.47 nM
IC50 [7]: 1.7 nM

B19: MBP-5HVZ-R5D-E4-H6 (VHH, not shown: large carriers; small tags and cut ends)
VHH: QVQLVESGGGLVQPGGSLRLSCAASGQISSNNGMHWFRQAPGKRREFVATATTGGTTSYADSVKGRFTISRDNAKNTVYLQMNSLKPEDTAVYYCTALLMSRAGEFDYWGQGTQVTVSS
IC50 [5]: 13.7 nM
Kd [5]: 9.34 nM

B20: MBP-5HVZ-R5C-F6-H6 (VHH, not shown: large carriers; small tags and cut ends)
VHH: QVQLVESGGGLVQPGGSLRLSCAASGQTNSILAMHWYRQAPGKQREAVATITSGSNSTYADSVKGRFTISRDNAKNTVYLQMNSLKPEDTAVYYCAARNGKLSPKANQRLYWGQGTQVTVSS
IC50 [1]: 110 nM

B21: PP906 MBP-5HVZ-S1b-E7-H6 (VHH)
VHH: QVQLVESGGGLVQPGGSLRLSCAASGGEFSDNGLHWFRQAPGKQREFVATASSDGSTQYRDSVKGRFTISRDNAKNTVYLQMNSLKPEDTAVYYCTALLMSSAGEYDVWGQGTQVTVSS
notes: Form: Dimer
Kd [6]: 15.5 nM
EC50 [4]: 2 nM
IC50 [7]: 35.7 nM

B22: MBP-5HVZ-R5D-A1-H6 (VHH, not shown: large carriers; small tags and cut ends)
VHH: QVQLVESGGGLVQPGGSLRLSCAASGSISSYNAMHWFRQAPGKQREWVAGLTSSGSDGYVDSVKGRFTISRDNAKNTVYLQMNSLKPEDTAVYYCNAFSYHTYSRYDFWGQGTQVTVSS
IC50 [1]: 12.6 nM

B23: MBP-R5D-D4-H6 (VHH, not shown: large carriers; small tags and cut ends)
VHH: QVQLVESGGGLVQPGGSLRLSCAASGSDFTINAMHWFRQAPGKQREFVATITSTSSTAYRDSVKGRFTISRDNAKNTVYLQMNSLKPEDTAVYYCAAFAVRDADTAGWTARDYWGQGTQVTVSS
Kd [5]: 100 nM

B24: PP903 MBP-5HVZ-R1i-A11-H6 (VHH)
VHH: QVQLVESGGGLVQPGGSLRLSCAASGSILQINAIHWFRQAPGKQREEVAAITSGGSTGYADSVKGRFTISRDNAKNTVYLQMNSLKPEDTAVYYCAATSTRGGLDSDYWGQGTQVTVSS
notes: Form: Dimer
Kd [6]: 6.98 nM
EC50 [4]: 0.27 nM
IC50 [7]: 1.5 nM

B25: MBP-5HVZ-R5D-G1-H6 (VHH, not shown: large carriers; small tags and cut ends)
VHH: QVQLVESGGGLVQPGGSLRLSCAASGSIFGINDVHWFRQAPGKEREFVATITNGLSARYKDSVKGRFTISRDNAKNTVYLQMNSLKPEDTAVYYCAAQVYITTYELYDYWGQGTQVTVSS
IC50 [5]: 12.4 nM

B26: PP1894 S3B-C8_smAKAP-C16S_R2B-D5_H6 (VHH)
chain: QVQLVESGGGLVQPGGSLRLSCAASGSIENIERMHWYRQAPGKQRELVAVIDSGGTTRYADSVKGRFTISRDNAKNTVYLQMNSLKPEDTAVYYCAAVWLTNAESTQEYWGQGTQVTVSSTVILEYAHRLSQDILSDALQQWASQVQLVESGGGLVQPGGSLRLSCAASGYADEINMVHWYRQAPGKGREFVAAIASGGSTFYADSVKGRFTISRDNAKNTVYLQMNSLKPEDTAVYYCAAIPRPSLSYAHDYAYWGQGTQVTVSSHHHHHH
Kd [2]: 0.44 nM
koff [2]: 0.000599 s⁻¹
kon [2]: 1.34e+06 M⁻¹ s⁻¹

B27: MBP-5HVZ-R5D-B2-H6 (VHH, not shown: large carriers; small tags and cut ends)
VHH: QVQLVESGGGLVQPGGSLRLSCAASGSIWSIAFMSWYRQAPGKGREWVAAITTGNDEAYADSVKGRFTISRDNAKNTVYLQMNSLKPEDTAVYYCAANTYERTPDGRTFSYWGQGTQVTVSS
Kd [1]: 1.21 nM
